The values that follow come from publication PMC1500806, “Carrageenan Is a Potent Inhibitor of Papillomavirus Infection” (PLoS Pathogens, 2006).

The IC50 is the midpoint of a concentration-inhibition curve. High values mean a need for much substance, low ones inhibition by little substance.

One data set concerns HPV16 PsV. The class given is cell-based, human papillomavirus. The note with it: HeLa cells, nonpolysaccharide compounds, dash = no inhibition at noncytotoxic doses. As for the experimental part:
Various candidate HPV infection inhibitors were tested using a PsV-based inhibition assay. The assay uses flow cytometric analysis to assess the inhibition of PsV-mediated delivery of a green fluorescent protein (GFP) reporter plasmid into HeLa cells. HPV16, an exceptionally oncogenic genital HPV type, was chosen as a model HPV for initial experiments.
(§1) Compounds were tested using a previously described PsV-based papillomavirus inhibition assay. Briefly, HeLa cells were plated at 6,000 cells/well in 50 μl of medium in 96-well plates. Candidate inhibitors were dissolved at 1–10 mg/ml (or reconstituted as directed by manufacturer) in sterile water or appropriate solvent, then subjected to a ten-point three-fold serial dilution covering an appropriate concentration range. Diluted candidate inhibitor (50 μl) was added to preplated HeLa cells, followed by 50 μl of diluted PsV stock. The cells were incubated for 24 h, fed by addition of 100 μl of DMEM-10, then subjected to flow cytometric analysis 48–56 h after infection. IC50 values and 95% CI were determined using Prism (GraphPad Software, San Diego, California, United States) to calculate a variable slope sigmoidal dose-response curve.
PsV doses were calibrated such that between 5% and 20% of cells scored as GFP^+ when no inhibitors were added. […] HPV5 PsV infection of HeLa cells was performed with a dose of 35 ng/ml L1. […]

Another data set concerns HeLa cells. The experiment in a line: Cytotoxicity (WST-1 turnover and/or cell morphology). The class given is cell-based. The settings on record: >50% reduction in WST-1 turnover and/or altered cell morphology. As to the method: as §1
Cytotoxicity was defined as a >50% reduction in the net turnover of the metabolic substrate WST-1 (Roche, Indianapolis, Indiana, United States) and/or by the appearance of dramatic alterations in the microscopic appearance of cell morphology at the time of harvest.
On the technique in general: Formazan colour is commonly taken as a measure of viable cells.

B1: Lactoferrin (protein, UniProt P24627 20-708, looked up)
Lactotransferrin: APRKNVRWCTISQPEWFKCRRWQWRMKKLGAPSITCVRRAFALECIRAIAEKKADAVTLDGGMVFEAGRDPYKLRPVAAEIYGTKESPQTHYYAVAVVKKGSNFQLDQLQGRKSCHTGLGRSAGWIIPMGILRPYLSWTESLEPLQGAVAKFFSASCVPCIDRQAYPNLCQLCKGEGENQCACSSREPYFGYSGAFKCLQDGAGDVAFVKETTVFENLPEKADRDQYELLCLNNSRAPVDAFKECHLAQVPSHAVVARSVDGKEDLIWKLLSKAQEKFGKNKSRSFQLFGSPPGQRDLLFKDSALGFLRIPSKVDSALYLGSRYLTTLKNLRETAEEVKARYTRVVWCAVGPEEQKKCQQWSQQSGQNVTCATASTTDDCIVLVLKGEADALNLDGGYIYTAGKCGLVPVLAENRKSSKHSSLDCVLRPTEGYLAVAVVKKANEGLTWNSLKDKKSCHTAVDRTAGWNIPMGLIVNQTGSCAFDEFFSQSCAPGADPKSRLCALCAGDDQGLDKCVPNSKEKYYGYTGAFRCLAEDVGDVAFVKNDTVWENTNGESTADWAKNLNREDFRLLCLDGTRKPVTEAQSCHLAVAPNHAVVSRSDRAAHVKQVLLHQQALFGKNGKNCPDKFCLFKSETKNLLFNDNTECLAKLGGRPTYEEYLGTEYVTAIANLKKCSTSPLLEACAFLTR
The molecule B1 came in with an IC50 in the data set on HPV16 PsV of 13 µg/mL. In addition, the Cytotoxicity with HeLa cells is above 780 µg/mL.
